Seven substances from patent US20170362341A1 can be followed below.

For assay [1], the target named is CD-30 on Karpas 299 and L540 cells (UniProt P28908). Description: FACS-based cell binding on L540 cells, Alexa-488 goat anti-human IgG detection, MFI normalised to the averaged maximum (% binding).
The target in assay [2] is HER2 on SKBR3 cells (UniProt P04626). Description: flow cytometry on SKBR3 cells, one site specific binding fit; column head prints 'Cell Binding IC50, nM' (heads of c3 and c4 seem swapped).
Assay [3] deals with CD-30 on Karpas 299 and L540 cells (UniProt P28908). Description: flow cytometry on L540 cells, one site-total binding fit.
The target is the same in assay [4]. Description: flow cytometry on Karpas 299 cells, one site-total binding fit.
Assay [5] shares this target. Description: FACS-based cell binding on Karpas 299 cells, Alexa-488 goat anti-human IgG detection, MFI normalised to the averaged maximum (% binding).
Assay [6] has as its target HER2 on SKBR3 cells (UniProt P04626). Description: flow cytometry on SKBR3 cells.

UniProt P28908, sequence (P28908 19-595 limits assumed): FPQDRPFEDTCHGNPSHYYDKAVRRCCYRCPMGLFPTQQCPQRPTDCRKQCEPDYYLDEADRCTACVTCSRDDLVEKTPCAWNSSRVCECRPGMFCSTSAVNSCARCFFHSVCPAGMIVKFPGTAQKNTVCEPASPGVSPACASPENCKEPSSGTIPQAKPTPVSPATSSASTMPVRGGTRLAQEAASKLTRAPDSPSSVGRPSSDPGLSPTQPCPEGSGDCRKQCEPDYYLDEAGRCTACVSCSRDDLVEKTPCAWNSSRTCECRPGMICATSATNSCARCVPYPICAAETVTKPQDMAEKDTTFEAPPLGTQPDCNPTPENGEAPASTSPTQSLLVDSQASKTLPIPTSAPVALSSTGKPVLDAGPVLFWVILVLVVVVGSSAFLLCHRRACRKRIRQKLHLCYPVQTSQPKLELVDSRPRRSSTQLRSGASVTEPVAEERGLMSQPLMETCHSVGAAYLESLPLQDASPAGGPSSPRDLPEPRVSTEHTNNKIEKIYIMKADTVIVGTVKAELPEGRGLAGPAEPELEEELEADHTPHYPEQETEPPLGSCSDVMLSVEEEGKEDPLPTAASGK

With “Adcetris HC K121 unconjugated (antibody)”, the EC50 (read off the curve) in assay [1] was found to be 0.8 nM.
“Trastuzumab scFv (VL_VH) with pN3F at position (-1), conjugated to DBCO-MMAF”: the Kd in assay [2] came out at 14 nM.
Regarding “Aglycosylated Brentuximab IgG LC-N152 conjugated to DBCO-MMAF 2 (antibody)”, the Kd in assay [3] is 1 nM; in assay [4], 0.5 nM. Also, the values for the EC50 (read off the curve) in assay [1] and in assay [5] were 0.6 nM and 0.4 nM, respectively.
“Aglycosylated Brentuximab IgG HC-K121 conjugated to DBCO-MMAF 2 (antibody)”: the Kd in assay [3] was 1.3 nM; in assay [4], 0.52 nM. The EC50 (read off the curve) in assay [5] was 0.4 nM.
Regarding “Aglycosylated Brentuximab IgG HC-F404 conjugated to DBCO-MMAF 2 (antibody)”, the Kd was found to be 0.81 nM in assay [3] and 0.46 nM in assay [4]. In addition, the EC50 (read off the curve) in assay [1] worked out at 0.7 nM; in assay [5], 0.3 nM.
For “Adcetris HC F404 unconjugated (antibody)”, the EC50 (read off the curve) in assay [1] stood at 1 nM.
With “Trastuzumab scFv-Fc (-1) pN3F conjugated to DBCO-MMAF (Fc fusion)”, the Kd in assay [6] is 6.8 nM.
